The labels stand for the following.
B1: wt mouse RtcB-Flag (pCMV3-mRTCB-Flag) [mouse] / PTP1B-C215S (trapping mutant; pcDNA3.1/Zeo-PTP1B [not stated] (parent)
chain 1: MSRNYNDELQFLDKINKNCWRIKKGFVPNMQVEGVFYVNDALEKLMFEELRNACRGGGVGGFLPAMKQIGNVAALPGIVHRSIGLPDVHSGYGFAIGNMAAFDMNDPEAVVSPGGVGFDINCGVRLLRTNLDESDVQPVKEQLAQAMFDHIPVGVGSKGVIPMNAKDLEEALEMGVDWSLREGYAWAEDKEHCEEYGRMLQADPNKVSPRAKKRGLPQLGTLGAGNHYAEIQVVDEIFNEYAAKKMGIDHKGQVCVMIHSGSRGLGHQVATDALVAMEKAMKRDKIIVNDRQLACARIASPEGQDYLKGMAAAGNYAWVNRSSMTFLTRQAFAKVFNTTPDDLDLHVIYDVSHNIAKVEQHVVDGKERTLLVHRKGSTRAFPPHHPLIAVDYQLTGQPVLIGGTMGTCSYVLTGTEQGMTETFGTTCHGAGRALSRAKSRRNLDFQDVLDKLADMGIAIRVASPKLVMEEAPESYKNVTDVVNTCHDAGISKKAIKLRPIAVIKG
chain 2: MEMEKEFEQIDKSGSWAAIYQDIRHEASDFPCRVAKLPKNKNRNRYRDVSPFDHSRIKLHQEDNDYINASLIKMEEAQRSYILTQGPLPNTCGHFWEMVWEQKSRGVVMLNRVMEKGSLKCAQYWPQKEEKEMIFEDTNLKLTLISEDIKSYYTVRQLELENLTTQETREILHFHYTTWPDFGVPESPASFLNFLFKVRESGSLSPEHGPVVVHSSAGIGRSGTFCLADTCLLLMDKRKDPSSVDIKKVLLEMRKFRMGLIQTADQLRFSYLAVIEGAKFIMGDSSVQDQWKELSHEDLEPPPEHIPPPPRPPKRILEPHNGKCREFFPNHQWVKEETQEDKDCPIKEEKGSPLNAAPYGIESMSQDTEVRSRVVGGSLRGAQAASPAKGEPSLPEKDEDHALSYWKPFLVNMCVATVLTAGAYLCYRFLFNSNT

Variants of B1 are the subject of the experiment. The experiment is described as follows: co-immunoprecipitation (IP: PTP1B, immunoblot RtcB), band quantification. To be noted: with PTP1B-C215S (trapping mutant; pcDNA3.1/Zeo-PTP1B C215S); HEK cells, 1 μg RtcB-Flag plasmid and 1 μg PTP1B C215S plasmid; n = 3; parent: 100; read off a plot. For orientation: A western blot detects proteins with antibodies after separation by electrophoresis.
For chain 1 MSRNYNDELQFLDKINKNCWRIKKGFVPNMQVEGVFYVNDALEKLMFEELRNACRGGGVGGFLPAMKQIGNVAALPGIVHRSIGLPDVHSGYGFAIGNMAAFDMNDPEAVVSPGGVGFDINCGVRLLRTNLDESDVQPVKEQLAQAMFDHIPVGVGSKGVIPMNAKDLEEALEMGVDWSLREGYAWAEDKEHCEEYGRMLQADPNKVSPRAKKRGLPQLGTLGAGNHYAEIQVVDEIFNEYAAKKMGIDHKGQVCVMIHSGSRGLGHQVATDALVAMEKAMKRDKIIVNDRQLACARIASPEGQDFLKGMAAAGNFAWVNRSSMTFLTRQAFAKVFNTTPDDLDLHVIYDVSHNIAKVEQHVVDGKERTLLVHRKGSTRAFPPHHPLIAVDYQLTGQPVLIGGTMGTCSYVLTGTEQGMTETFGTTCHGAGRALSRAKSRRNLDFQDVLDKLADMGIAIRVASPKLVMEEAPESYKNVTDVVNTCHDAGISKKAIKLRPIAVIKG [chain 1 Y306F Y316F], the percent of parent amounted to 37 % WT.

For the variant chain 1 MSRNYNDELQFLDKINKNCWRIKKGFVPNMQVEGVFYVNDALEKLMFEELRNACRGGGVGGFLPAMKQIGNVAALPGIVHRSIGLPDVHSGYGFAIGNMAAFDMNDPEAVVSPGGVGFDINCGVRLLRTNLDESDVQPVKEQLAQAMFDHIPVGVGSKGVIPMNAKDLEEALEMGVDWSLREGYAWAEDKEHCEEYGRMLQADPNKVSPRAKKRGLPQLGTLGAGNHYAEIQVVDEIFNEYAAKKMGIDHKGQVCVMIHSGSRGLGHQVATDALVAMEKAMKRDKIIVNDRQLACARIASPEGQDYLKGMAAAGNYAWVNRSSMTFLTRQAFAKVFNTTPDDLDLHVIYDVSHNIAKVEQHVVDGKERTLLVHRKGSTRAFPPHHPLIAVDYQLTGQPVLIGGTMGTCSYVLTGTEQGMTETFGTTCHGAGRALSRAKSRRNLDFQDVLDKLADMGIAIRVASPKLVMEEAPESFKNVTDVVNTCHDAGISKKAIKLRPIAVIKG [chain 1 Y475F], the percent of parent turned out to be 55 % WT.

For chain 1 MSRNYNDELQFLDKINKNCWRIKKGFVPNMQVEGVFYVNDALEKLMFEELRNACRGGGVGGFLPAMKQIGNVAALPGIVHRSIGLPDVHSGYGFAIGNMAAFDMNDPEAVVSPGGVGFDINCGVRLLRTNLDESDVQPVKEQLAQAMFDHIPVGVGSKGVIPMNAKDLEEALEMGVDWSLREGYAWAEDKEHCEEYGRMLQADPNKVSPRAKKRGLPQLGTLGAGNHYAEIQVVDEIFNEYAAKKMGIDHKGQVCVMIHSGSRGLGHQVATDALVAMEKAMKRDKIIVNDRQLACARIASPEGQDFLKGMAAAGNFAWVNRSSMTFLTRQAFAKVFNTTPDDLDLHVIYDVSHNIAKVEQHVVDGKERTLLVHRKGSTRAFPPHHPLIAVDYQLTGQPVLIGGTMGTCSYVLTGTEQGMTETFGTTCHGAGRALSRAKSRRNLDFQDVLDKLADMGIAIRVASPKLVMEEAPESFKNVTDVVNTCHDAGISKKAIKLRPIAVIKG [chain 1 Y306F Y316F Y475F], the percent of parent turned out to be 38 % WT.

On to chain 1 MSRNYNDELQFLDKINKNCWRIKKGFVPNMQVEGVFYVNDALEKLMFEELRNACRGGGVGGFLPAMKQIGNVAALPGIVHRSIGLPDVHSGYGFAIGNMAAFDMNDPEAVVSPGGVGFDINCGVRLLRTNLDESDVQPVKEQLAQAMFDHIPVGVGSKGVIPMNAKDLEEALEMGVDWSLREGYAWAEDKEHCEEYGRMLQADPNKVSPRAKKRGLPQLGTLGAGNHYAEIQVVDEIFNEYAAKKMGIDHKGQVCVMIHSGSRGLGHQVATDALVAMEKAMKRDKIIVNDRQLACARIASPEGQDFLKGMAAAGNYAWVNRSSMTFLTRQAFAKVFNTTPDDLDLHVIYDVSHNIAKVEQHVVDGKERTLLVHRKGSTRAFPPHHPLIAVDYQLTGQPVLIGGTMGTCSYVLTGTEQGMTETFGTTCHGAGRALSRAKSRRNLDFQDVLDKLADMGIAIRVASPKLVMEEAPESYKNVTDVVNTCHDAGISKKAIKLRPIAVIKG [chain 1 Y306F], for which the percent of parent came out at 100 % WT.

With chain 1 MSRNYNDELQFLDKINKNCWRIKKGFVPNMQVEGVFYVNDALEKLMFEELRNACRGGGVGGFLPAMKQIGNVAALPGIVHRSIGLPDVHSGYGFAIGNMAAFDMNDPEAVVSPGGVGFDINCGVRLLRTNLDESDVQPVKEQLAQAMFDHIPVGVGSKGVIPMNAKDLEEALEMGVDWSLREGYAWAEDKEHCEEYGRMLQADPNKVSPRAKKRGLPQLGTLGAGNHYAEIQVVDEIFNEYAAKKMGIDHKGQVCVMIHSGSRGLGHQVATDALVAMEKAMKRDKIIVNDRQLACARIASPEGQDYLKGMAAAGNFAWVNRSSMTFLTRQAFAKVFNTTPDDLDLHVIYDVSHNIAKVEQHVVDGKERTLLVHRKGSTRAFPPHHPLIAVDYQLTGQPVLIGGTMGTCSYVLTGTEQGMTETFGTTCHGAGRALSRAKSRRNLDFQDVLDKLADMGIAIRVASPKLVMEEAPESYKNVTDVVNTCHDAGISKKAIKLRPIAVIKG [chain 1 Y316F], the percent of parent was 75 % WT.
